Assay results published in patent publication US20070287665A1 (SOCIETE DE CONSEILS DE RECHERCHES ET D APPLICATIONS …, published 2007).
Bridge positions count the residues as written; N and C are the ends. Square brackets hold non-standard residues; d marks the D form. Ends that are not written are not given here. dDip = N[C@@H](C(=O)O)C(c1ccccc1)c1ccccc1; Phe(4-Cl) = N[C@@H](Cc1ccc(Cl)cc1)C(=O)O; Phe(4-F) = N[C@@H](Cc1ccc(F)cc1)C(=O)O; 3Pal = N[C@@H](Cc1cccnc1)C(=O)O; Tle = CC(C)(C)[C@H](N)C(=O)O; Nal = naphthylalanine

B1: Cpa-c[D-Cys-Phe-Trp-Lys-Thr-Cys]-Val-NH2 (peptide)
peptide: [Phe(4-Cl)][dC]FWKTCV-NH2
modifications: disulfide 2-7; N-terminus assumed
SMILES: CC(C)[C@H](NC(=O)[C@@H]1CSSC[C@@H](NC(=O)[C@@H](N)Cc2ccc(Cl)cc2)C(=O)N[C@@H](Cc2ccccc2)C(=O)N[C@@H](Cc2c[nH]c3ccccc23)C(=O)N[C@@H](CCCCN)C(=O)N[C@@H]([C@@H](C)O)C(=O)N1)C(N)=O
B2: Cpa-D-Cys-Tyr-D-Trp-Lys-Thr-Cys-Nal-NH2 (peptide)
peptide: XXYXKTCX
modifications: Cpa (p-chlorophenylalanine) at 1; D-Cys at 2; D-Trp at 4; Nal (naphthylalanine) at 8; C-terminal amide

Columns and labels:
[1] = target: U-II receptors (rat thoracic aorta tissue) (rat) (UniProt P49684); assay: method not described; presumably binding to rat aorta tissue / U-II receptors
[2] = target: U-II receptors (rat thoracic aorta tissue) (rat) (UniProt P49684); assay: cell-based or functional assay
[3] = target: T1, U-II receptors (rat thoracic aorta tissue) (rat, UniProt P49684 1-386); assay: cell-based or functional assay
T1 sequence (looked up): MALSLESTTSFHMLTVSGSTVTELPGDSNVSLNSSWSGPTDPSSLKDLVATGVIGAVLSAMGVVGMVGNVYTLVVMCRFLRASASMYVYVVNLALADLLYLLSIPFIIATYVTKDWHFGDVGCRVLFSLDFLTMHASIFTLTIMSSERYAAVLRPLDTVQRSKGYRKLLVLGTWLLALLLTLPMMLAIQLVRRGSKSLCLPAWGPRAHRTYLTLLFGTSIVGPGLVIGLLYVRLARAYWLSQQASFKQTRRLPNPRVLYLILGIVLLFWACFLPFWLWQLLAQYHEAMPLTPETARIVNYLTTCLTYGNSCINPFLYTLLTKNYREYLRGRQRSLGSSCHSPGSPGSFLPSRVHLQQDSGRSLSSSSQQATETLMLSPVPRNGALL

[4] = target: T1, U-II receptors (rat thoracic aorta …); assay: cell-based or functional assay; remark: listed apart in the source

Molecule | SRIF Antagonist IC50s (nM) against U-II Stimulation of Rat Aorta Phasic Contractions [4] [nM] | also measured
Cpa-c[D-Cys-Pal-D-Trp-Lys-Val-Cys]-Cpa-amide (peptide) |  | Kd [1]: 240 nM; IC50 against U-II-induced phasic contractions in circular rat thoracic aorta strips [2]: 100 nM
B1 |  | IC50 against U-II-induced phasic contractions in circular rat thoracic aorta strips [3]: 2 nM
[Nal][dC]H[dW]KVC[dDip]-NH2 (disulfide 2-7 (inferred)) [Nal-D-Cys-His-D-Trp-Lys-Val-Cys-D-Dip-NH2] | 1800 | 
[Phe(4-F)][dC][3Pal][dW]KVC[Nal]-NH2 (disulfide 2-7 (inferred)) [4Fpa-D-Cys-Pal-D-Trp-Lys-Val-Cys-Nal-NH2] | 1090 | 
[Phe(4-F)][dC][3Pal][dW]K[Tle]C[Nal]-NH2 (disulfide 2-7 (inferred)) [4Fpa-D-Cys-Pal-D-Trp-Lys-Tle-Cys-Nal-NH2] | 100 | 
B2 | 12 | 
[Phe(4-Cl)][dC][3Pal][dW]K[Tle]C[Nal]-NH2 (disulfide 2-7 (inferred)) [Cpa-D-Cys-Pal-D-Trp-Lys-Tle-Cys-Nal-NH2] | 10 | 
[Phe(4-Cl)][dC][3Pal]WKTC[Phe(4-Cl)]-NH2 (disulfide 2-7 (inferred)) [Cpa-D-Cys-Pal-Trp-Lys-Thr-Cys-Cpa-NH2] | 2 | 
